# Data: the supplement of paper PMC10567573
# B1: CCDC6 (parent)
# chain: FTPPTSLTRAGMSYYNSPGLHVQH
# B2: CCDC89 (parent)
# chain: LNAELEEKMMQEAEKLKAQGEYSR
# Variants of: B1
# Test: protein stability index of a GFP-peptide fusion (GPS, HEK-293T) (PSI 1-6); higher = more stable
# Settings: c terminus: a fixed tail appended
# 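Also: lentivirally expressed fusions sorted by FACS into six bins by GFP to DsRed ratio, PSI derived from sequencing read proportions per bin multiplied by bin number.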
row,Variant,protein stability index
1,FTPPTSLTRAGMSYYNEPGLHVQH,1.93
2,FTPPTSLTRAGMSYYNFPGLHVQH,2.95
3,FTPPTSLTRAGMSYYNGPGLHVQH,2
4,FTPPTSLTRAGMSYYNHPGLHVQH,1.83
5,FTPPTSLTRAGMSYYNIPGLHVQH,1.7
6,FTPPTSLTRAGMSYYNKPGLHVQH,2.04
7,FTPPTSLTRAGMSYYNLPGLHVQH,1.78
8,FTPPTSLTRAGMSYYNMPGLHVQH,1.32
9,FTPPTSLTRAGMSYYNNPGLHVQH,1.24
10,FTPPTSLTRAGMSYYNQPGLHVQH,1.57
11,FTPPTSLTRAGMSYYNRPGLHVQH,1.76
12,FTPPTSLTRAGMSYYNTPGLHVQH,1.64
13,FTPPTSLTRAGMSYYNVPGLHVQH,1.86
14,FTPPTSLTRAGMSYYNWPGLHVQH,2.48
15,FTPPTSLTRAGMSYYNYPGLHVQH,1.68
16,FTPPTSLTRAGMSYYNSAGLHVQH,2.28
17,FTPPTSLTRAGMSYYNSCGLHVQH,1.21
18,FTPPTSLTRAGMSYYNSDGLHVQH,1.5
19,FTPPTSLTRAGMSYYNSEGLHVQH,2.52
20,FTPPTSLTRAGMSYYNSFGLHVQH,1.25
21,FTPPTSLTRAGMSYYNSGGLHVQH,2.05
22,FTPPTSLTRAGMSYYNSHGLHVQH,1.38
23,FTPPTSLTRAGMSYYNSIGLHVQH,2.06
24,FTPPTSLTRAGMSYYNSKGLHVQH,2.43
25,FTPPTSLTRAGMSYYNSLGLHVQH,1.22

row,Variant,protein stability index
1,FTPPTSLTRAGMSYYNSMGLHVQH,1.73
2,FTPPTSLTRAGMSYYNSNGLHVQH,1.78
3,FTPPTSLTRAGMSYYNSQGLHVQH,2.16
4,FTPPTSLTRAGMSYYNSRGLHVQH,1.95
5,FTPPTSLTRAGMSYYNSSGLHVQH,1.87
6,FTPPTSLTRAGMSYYNSTGLHVQH,2.11
7,FTPPTSLTRAGMSYYNSVGLHVQH,2.27
8,FTPPTSLTRAGMSYYNSWGLHVQH,2.62
9,FTPPTSLTRAGMSYYNSYGLHVQH,2.87
10,FTPPTSLTRAGMSYYNSPALHVQH,1.98
11,FTPPTSLTRAGMSYYNSPCLHVQH,1.98
12,FTPPTSLTRAGMSYYNSPDLHVQH,2.22
13,FTPPTSLTRAGMSYYNSPELHVQH,2.1
14,FTPPTSLTRAGMSYYNSPFLHVQH,2.45
15,FTPPTSLTRAGMSYYNSPHLHVQH,1.96
16,FTPPTSLTRAGMSYYNSPILHVQH,1.56
17,FTPPTSLTRAGMSYYNSPKLHVQH,2.27
18,FTPPTSLTRAGMSYYNSPLLHVQH,1.66
19,FTPPTSLTRAGMSYYNSPMLHVQH,2.08
20,FTPPTSLTRAGMSYYNSPNLHVQH,2.09
21,FTPPTSLTRAGMSYYNSPQLHVQH,2.87
22,FTPPTSLTRAGMSYYNSPRLHVQH,2.13
23,FTPPTSLTRAGMSYYNSPSLHVQH,1.73
24,FTPPTSLTRAGMSYYNSPTLHVQH,1.86
25,FTPPTSLTRAGMSYYNSPVLHVQH,3.1

row,Variant,protein stability index
1,FTPPTSLTRAGMSYYNSPWLHVQH,1.8
2,FTPPTSLTRAGMSYYNSPYLHVQH,1.96
3,FTPPTSLTRAGMSYYNSPGAHVQH,2.14
4,FTPPTSLTRAGMSYYNSPGCHVQH,1.68
5,FTPPTSLTRAGMSYYNSPGDHVQH,2.02
6,FTPPTSLTRAGMSYYNSPGEHVQH,2.27
7,FTPPTSLTRAGMSYYNSPGFHVQH,1.72
8,FTPPTSLTRAGMSYYNSPGGHVQH,2.93
9,FTPPTSLTRAGMSYYNSPGHHVQH,1.72
10,FTPPTSLTRAGMSYYNSPGIHVQH,2.36
11,FTPPTSLTRAGMSYYNSPGKHVQH,2.25
12,FTPPTSLTRAGMSYYNSPGMHVQH,1.8
13,FTPPTSLTRAGMSYYNSPGNHVQH,2.4
14,FTPPTSLTRAGMSYYNSPGPHVQH,1.67
15,FTPPTSLTRAGMSYYNSPGQHVQH,2.69
16,FTPPTSLTRAGMSYYNSPGRHVQH,2.62
17,FTPPTSLTRAGMSYYNSPGSHVQH,1.84
18,FTPPTSLTRAGMSYYNSPGTHVQH,2.35
19,FTPPTSLTRAGMSYYNSPGVHVQH,2.02
20,FTPPTSLTRAGMSYYNSPGWHVQH,2.79
21,FTPPTSLTRAGMSYYNSPGYHVQH,1.51
22,FTPPTSLTRAGMSYYNSPGLAVQH,2.11
23,FTPPTSLTRAGMSYYNSPGLCVQH,1.81
24,FTPPTSLTRAGMSYYNSPGLDVQH,1.47
25,FTPPTSLTRAGMSYYNSPGLEVQH,2.75

row,Variant,protein stability index
1,FTPPTSLTRAGMSYYNSPGLFVQH,1.61
2,FTPPTSLTRAGMSYYNSPGLGVQH,2.2
3,FTPPTSLTRAGMSYYNSPGLIVQH,1.61
4,FTPPTSLTRAGMSYYNSPGLKVQH,1.68
5,FTPPTSLTRAGMSYYNSPGLLVQH,1.81
6,FTPPTSLTRAGMSYYNSPGLMVQH,1.6
7,FTPPTSLTRAGMSYYNSPGLNVQH,1.97
8,FTPPTSLTRAGMSYYNSPGLPVQH,1.76
9,FTPPTSLTRAGMSYYNSPGLQVQH,2.54
10,FTPPTSLTRAGMSYYNSPGLRVQH,1.75
11,FTPPTSLTRAGMSYYNSPGLSVQH,2.13
12,FTPPTSLTRAGMSYYNSPGLTVQH,1.91
13,FTPPTSLTRAGMSYYNSPGLVVQH,2.58
14,FTPPTSLTRAGMSYYNSPGLWVQH,2.36
15,FTPPTSLTRAGMSYYNSPGLYVQH,1.25
16,FTPPTSLTRAGMSYYNSPGLHAQH,1.7
17,FTPPTSLTRAGMSYYNSPGLHCQH,1.51
18,FTPPTSLTRAGMSYYNSPGLHDQH,1.86
19,FTPPTSLTRAGMSYYNSPGLHEQH,2.18
20,FTPPTSLTRAGMSYYNSPGLHFQH,1.51
21,FTPPTSLTRAGMSYYNSPGLHGQH,2.01
22,FTPPTSLTRAGMSYYNSPGLHHQH,1.87
23,FTPPTSLTRAGMSYYNSPGLHIQH,2.14
24,FTPPTSLTRAGMSYYNSPGLHKQH,2.25
25,FTPPTSLTRAGMSYYNSPGLHLQH,1.95

row,Variant,protein stability index
1,FTPPTSLTRAGMSYYNSPGLHMQH,1.64
2,FTPPTSLTRAGMSYYNSPGLHNQH,1.98
3,FTPPTSLTRAGMSYYNSPGLHQQH,1.56
4,FTPPTSLTRAGMSYYNSPGLHRQH,2.01
5,FTPPTSLTRAGMSYYNSPGLHSQH,1.74
6,FTPPTSLTRAGMSYYNSPGLHTQH,1.97
7,FTPPTSLTRAGMSYYNSPGLHWQH,1.22
8,FTPPTSLTRAGMSYYNSPGLHYQH,2.32
9,FTPPTSLTRAGMSYYNSPGLHVAH,1.74
10,FTPPTSLTRAGMSYYNSPGLHVCH,1.65
11,FTPPTSLTRAGMSYYNSPGLHVDH,1.69
12,FTPPTSLTRAGMSYYNSPGLHVFH,1.92
13,FTPPTSLTRAGMSYYNSPGLHVGH,1.56
14,FTPPTSLTRAGMSYYNSPGLHVHH,1.88
15,FTPPTSLTRAGMSYYNSPGLHVIH,2.46
16,FTPPTSLTRAGMSYYNSPGLHVKH,2.34
17,FTPPTSLTRAGMSYYNSPGLHVLH,2
18,FTPPTSLTRAGMSYYNSPGLHVMH,1.31
19,FTPPTSLTRAGMSYYNSPGLHVNH,1.2
20,FTPPTSLTRAGMSYYNSPGLHVPH,1.79
21,FTPPTSLTRAGMSYYNSPGLHVRH,2.08
22,FTPPTSLTRAGMSYYNSPGLHVSH,1.43
23,FTPPTSLTRAGMSYYNSPGLHVTH,1.73
24,FTPPTSLTRAGMSYYNSPGLHVVH,2.3
25,FTPPTSLTRAGMSYYNSPGLHVWH,3.23

row,Variant,protein stability index
1,FTPPTSLTRAGMSYYNSPGLHVYH,2.06
2,FTPPTSLTRAGMSYYNSPGLHVQA,1.56
3,FTPPTSLTRAGMSYYNSPGLHVQC,1.66
4,FTPPTSLTRAGMSYYNSPGLHVQD,1.82
5,FTPPTSLTRAGMSYYNSPGLHVQE,1.84
6,FTPPTSLTRAGMSYYNSPGLHVQF,2.77
7,FTPPTSLTRAGMSYYNSPGLHVQG,1.77
8,FTPPTSLTRAGMSYYNSPGLHVQI,3.53
9,FTPPTSLTRAGMSYYNSPGLHVQK,2.7
10,FTPPTSLTRAGMSYYNSPGLHVQL,1.63
11,FTPPTSLTRAGMSYYNSPGLHVQM,2.9
12,FTPPTSLTRAGMSYYNSPGLHVQN,1.15
13,FTPPTSLTRAGMSYYNSPGLHVQP,2.24
14,FTPPTSLTRAGMSYYNSPGLHVQQ,1.86
15,FTPPTSLTRAGMSYYNSPGLHVQR,1.73
16,FTPPTSLTRAGMSYYNSPGLHVQS,1.8
17,FTPPTSLTRAGMSYYNSPGLHVQT,1.85
18,FTPPTSLTRAGMSYYNSPGLHVQV,1.67
19,FTPPTSLTRAGMSYYNSPGLHVQW,1.38
20,FTPPTSLTRAGMSYYNSPGLHVQY,1.19

# Variants of: B2
# Test: as above
# Settings: c terminus: a fixed tail appended
row,Variant,protein stability index
1,ANAELEEKMMQEAEKLKAQGEYSR,5.74
2,CNAELEEKMMQEAEKLKAQGEYSR,5.32
3,DNAELEEKMMQEAEKLKAQGEYSR,5.54
4,ENAELEEKMMQEAEKLKAQGEYSR,4.91
5,FNAELEEKMMQEAEKLKAQGEYSR,5.18
6,HNAELEEKMMQEAEKLKAQGEYSR,4.89
7,INAELEEKMMQEAEKLKAQGEYSR,4.69
8,KNAELEEKMMQEAEKLKAQGEYSR,5.3
9,MNAELEEKMMQEAEKLKAQGEYSR,5.2
10,NNAELEEKMMQEAEKLKAQGEYSR,4.97
11,PNAELEEKMMQEAEKLKAQGEYSR,5.4
12,QNAELEEKMMQEAEKLKAQGEYSR,5.11
13,RNAELEEKMMQEAEKLKAQGEYSR,5.17
14,SNAELEEKMMQEAEKLKAQGEYSR,5.21
15,TNAELEEKMMQEAEKLKAQGEYSR,4.98
16,VNAELEEKMMQEAEKLKAQGEYSR,4.41
17,WNAELEEKMMQEAEKLKAQGEYSR,4.8
18,YNAELEEKMMQEAEKLKAQGEYSR,4.95
19,LAAELEEKMMQEAEKLKAQGEYSR,4.98
20,LDAELEEKMMQEAEKLKAQGEYSR,3.11
21,LFAELEEKMMQEAEKLKAQGEYSR,4.17
22,LGAELEEKMMQEAEKLKAQGEYSR,5.14

row,Variant,protein stability index
1,LHAELEEKMMQEAEKLKAQGEYSR,5.42
2,LIAELEEKMMQEAEKLKAQGEYSR,4.79
3,LMAELEEKMMQEAEKLKAQGEYSR,4.99
4,LPAELEEKMMQEAEKLKAQGEYSR,4.82
5,LQAELEEKMMQEAEKLKAQGEYSR,5.63
6,LRAELEEKMMQEAEKLKAQGEYSR,3.94
7,LSAELEEKMMQEAEKLKAQGEYSR,5.11
8,LTAELEEKMMQEAEKLKAQGEYSR,5.32
9,LWAELEEKMMQEAEKLKAQGEYSR,2.71
10,LNCELEEKMMQEAEKLKAQGEYSR,4.69
11,LNDELEEKMMQEAEKLKAQGEYSR,5.08
12,LNEELEEKMMQEAEKLKAQGEYSR,4.45
13,LNFELEEKMMQEAEKLKAQGEYSR,4.57
14,LNGELEEKMMQEAEKLKAQGEYSR,3.57
15,LNHELEEKMMQEAEKLKAQGEYSR,4.71
16,LNIELEEKMMQEAEKLKAQGEYSR,4.9
17,LNKELEEKMMQEAEKLKAQGEYSR,5.28
18,LNLELEEKMMQEAEKLKAQGEYSR,5.02
19,LNNELEEKMMQEAEKLKAQGEYSR,3.89
20,LNPELEEKMMQEAEKLKAQGEYSR,4.76
21,LNQELEEKMMQEAEKLKAQGEYSR,4.97
